Source: patent US20210284734A1 (SYMPHOGEN A S, published 2021)
Like-named read-outs stand apart in the source and are kept apart here.

Legend:
[1] = molecular target: T1, R-PE labeled human PD-L1-Fc chimera protein (human, UniProt Q9NZQ7 19-239, conjugated to R-phycoerythrin (R-PE)); test: flow cytometry, PD-1-transfected CHO-S cells; R-PE PD-L1-Fc 16.4 nM in the presence of the negative control ramucirumab 10 ug/ml
T1 construct: bought from R&D Systems; not shown: Fc of the commercial chimera

[2] = molecular target: T2, His-tagged mouse PD-1 ECD (mouse (Mus musculus), UniProt Q02242 25-169); test: SPR, IgG captured, monovalent PD-1 ECD analyte
T2 construct: bought from Sino Biologicals; not shown: His tag
T2 sequence: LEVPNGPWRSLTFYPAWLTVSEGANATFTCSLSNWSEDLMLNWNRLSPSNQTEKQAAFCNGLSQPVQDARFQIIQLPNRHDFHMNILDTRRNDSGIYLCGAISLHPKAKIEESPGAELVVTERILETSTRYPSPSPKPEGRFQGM

[3] = molecular target: T3, His-tagged cynomolgus PD-1 ECD (cynomolgus (Macaca fascicularis), UniProt Q15116 25-170 (human entry)); test: SPR, IgG captured, monovalent PD-1 ECD analyte
T3 construct: bought from Acro Biosystems; not shown: His tag
T3 chain: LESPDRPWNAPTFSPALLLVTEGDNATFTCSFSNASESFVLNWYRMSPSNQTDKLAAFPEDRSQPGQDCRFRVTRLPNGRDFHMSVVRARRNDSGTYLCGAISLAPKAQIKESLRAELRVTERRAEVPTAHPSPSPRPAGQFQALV

[4] = molecular target: T4, His-tagged human PD-1 ECD (human, UniProt Q15116 25-170); test: SPR, IgG captured, monovalent PD-1 ECD analyte
T4 construct: bought from Acro Biosystems; not shown: His tag
T4 sequence (Q15116 25-170): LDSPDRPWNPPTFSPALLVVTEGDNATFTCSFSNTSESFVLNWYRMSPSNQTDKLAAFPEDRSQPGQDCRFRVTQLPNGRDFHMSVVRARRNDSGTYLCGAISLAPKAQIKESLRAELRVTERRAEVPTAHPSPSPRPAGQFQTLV

[5] = molecular target: T4, His-tagged human PD-1 ECD; test: SPR, IgG captured, monovalent PD-1 ECD analyte; remark: listed apart in the source
Experimental: (§1) The lowest possible anti-PD-1 antibody density was applied to prevent non-specific binding and mass transport limitation. For measuring antibody kinetics, anti-PD-1 antibodies were adjusted to a concentration of 1.0 μg/ml and captured on anti-human IgG Fc surfaces generated by immobilizing approximately 1000 RU of a monoclonal anti-human Fc antibody (Biacore, Denmark). […] The recorded binding responses were fitted to a simple Langmuir 1:1 binding model for calculation of the on-rate (kₒₙ or ka), off-rate (koff or kd) and affinity (KD) constants using double referencing.
(§2) His-tagged mouse and rat PD-1 ECD were purchased from Sino Biologicals.

[6] = molecular target: T2, His-tagged mouse PD-1 ECD; test: SPR, IgG captured, monovalent PD-1 ECD analyte; remark: listed apart in the source
Experimental: as §1, §2

T1 sequence (Q9NZQ7 19-239, change not shown): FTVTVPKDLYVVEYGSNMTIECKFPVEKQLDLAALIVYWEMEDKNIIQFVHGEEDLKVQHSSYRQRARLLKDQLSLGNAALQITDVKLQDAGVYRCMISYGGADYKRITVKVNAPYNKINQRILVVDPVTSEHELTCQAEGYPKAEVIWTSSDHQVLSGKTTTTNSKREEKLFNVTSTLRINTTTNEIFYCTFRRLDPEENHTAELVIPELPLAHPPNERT

B1: cyno PD1 (receptor)
receptor: LESPDRPWNAPTFSPALLLVTEGDNATFTCSFSNASESFVLNWYRMSPSNQTDKLAAFPEDRSQPGQDCRFRVTRLPNGRDFHMSVVRARRNDSGTYLCGAISLAPKAQIKESLRAELRVTERRAEVPTAHPSPSPRPAGQFQALVVGVVGGLLGSLVLLVWVLAVICSRAAQGTIEARRTGQPLKEDPSAVPVFSVDYGELDFQWREKTPEPPAPCVPEQTEYATIVFPSGLGTSSPARRGSADGPRSPRPLRPEDGHCSWPL
notes: also called cynomolgus PD-1 expressed on CFSE-stained CHO-S cells
**Q.** Does B1 bind [1]?
**A.** Result: binds

B2: 12865.17150 (antibody, human IgG1, lambda, L234A L235A, V domains shown)
VH: EVQLLESGGGLVQPGGSLRLSCAASGFDFSDHGMQWVRQAPGKGLEYVGVIDTTGRYTYYAPAVKGRATISRDNSKNTLYLQMNSLRAEDTAVYYCAKTTCVGGYLCNTVGSIDAWGQGTLVTVSS
VL: SYELTQDPAVSVALGQTVRITCSGGGSSSYYGWYQQKPGQAPVTVIYDDTNRPSGIPDRFSGSSSGNTASLTITGAQAEDEADYYCGGYEGSSHAGIFGSGTKVTVLG
**Q.** Does B2 bind [2]?
**A.** Result: no binding

B3: 12819.15384 (antibody, human IgG1, lambda, L234A L235A)
heavy: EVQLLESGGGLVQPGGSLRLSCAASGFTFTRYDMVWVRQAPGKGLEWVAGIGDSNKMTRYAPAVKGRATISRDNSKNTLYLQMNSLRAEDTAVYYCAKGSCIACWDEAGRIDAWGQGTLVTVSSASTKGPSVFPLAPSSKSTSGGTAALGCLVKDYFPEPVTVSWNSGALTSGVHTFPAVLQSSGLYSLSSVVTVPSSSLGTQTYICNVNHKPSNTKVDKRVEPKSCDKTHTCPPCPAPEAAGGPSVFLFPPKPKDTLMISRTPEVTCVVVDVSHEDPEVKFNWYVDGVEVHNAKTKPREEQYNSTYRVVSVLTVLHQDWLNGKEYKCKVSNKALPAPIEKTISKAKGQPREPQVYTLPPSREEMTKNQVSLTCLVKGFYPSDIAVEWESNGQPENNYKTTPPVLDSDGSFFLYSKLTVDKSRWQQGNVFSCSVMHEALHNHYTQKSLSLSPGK
light: SYELTQDPAVSVALGQTVRITCSGGGSYDGSSYYGWYQQKPGQAPVTVIYNNNNRPSDIPDRFSGSSSGNTASLTITGAQAEDEADYYCGSYDRPETNSDYVGMFGSGTKVTVLGQPKANPTVTLFPPSSEELQANKATLVCLISDFYPGAVTVAWKADGSPVKAGVETTKPSKQSNNKYAASSYLSLTPEQWKSHRSYSCQVTHEGSTVEKTVAPTECS
notes: humanized, IgG1 LALA, lambda
**Q.** Which Kd [3] does the source give for B3 here?
**A.** The Kd was 0.005 nM.

**Q.** And the koff [3]?
**A.** Its koff is 4.5e-06 s⁻¹.

**Q.** What about the kon [3] of the same binder?
**A.** The kon was 970000 M⁻¹ s⁻¹.

**Q.** What about the Kd [4] of the same binder?
**A.** Its Kd is 0.02 nM.

**Q.** And the koff [4]?
**A.** The koff was 2.3e-05 s⁻¹.

**Q.** What about the kon [4] of the same binder?
**A.** Its kon is 1.1e+06 M⁻¹ s⁻¹.

**Q.** And the Kd [5]?
**A.** The Kd was 0.028 nM.

**Q.** What about the koff [5] of the same binder?
**A.** Its koff is 8.85e-06 s⁻¹.

**Q.** And the kon [5]?
**A.** Its kon is 326000 M⁻¹ s⁻¹.

**Q.** And the Kd [6]?
**A.** Its Kd is 0.809 nM.

**Q.** What about the koff [6] of the same binder?
**A.** Its koff is 3.04e-05 s⁻¹.

**Q.** What about the kon [6] of the same binder?
**A.** The kon was 37100 M⁻¹ s⁻¹.
